Experimental data from patent US20240132615A1 (ICHNOS SCIENCES, published 2024).
One block for each binder: values may come before it.

Experiments:
[1] = molecular target: T1, recombinant human CD38 antigen for crystallography (hsCD38 ECD) (human, UniProt P28907 45-300); assay: X-ray crystal structure of the complex, 3.4 Å
T1 construct: also called ectodomain of hsCD38
Experimental: The Fab/hsCD38 complex was concentrated to ˜11 mg/mL. […] Drops consisting of 1 μL protein+1 μL precipitant were set up at 20° C., and crystals appeared within 3-7 days. The resulting crystals were cryoprotected by soaking in well solution supplemented with 35% ethylene glycol, then flash cooled and stored in liquid nitrogen until data collection. Diffraction data were collected at the Swiss Light Source (SLS). […] The structure was determined by molecular replacement with Phaser.

[2] = molecular target: T2, recombinant cynomolgus monkey CD38-ECD-C-his protein (cynomolgus monkey, UniProt Q5VAN0 45-301); assay: SPR, Fab as analyte, captured cynomolgus CD38-his
T2 construct: made in house; Q5VAN0 residues 43-301 (residue 44 deleted) with C-terminal 6-His; also called cynomolgus monkey CD38-C-His; recombinant cynomolgus monkey CD38 protein
Experimental: (§1) Surface plasmon resonance (SPR) was used to measure the binding affinities of the Fab fragments for human and cynomolgus monkey CD38. Affinities were measured on a Biacore T200 instrument (Cytiva Life Sciences) at 25° C. and analyzed with the Biacore T200 Evaluation Software (v3.1).
(§2) The affinities to human and cynomolgus monkey CD38 were assessed by immobilizing CD38 and using Fab fragments as analyte. […] Fab fragments were injected in single cycle kinetic at different concentrations ranging from 7.8 to 2000 nM, in HBS-EP+ buffer (Cytiva Life Sciences, catalog NO: BR100669) at a flow rate of 30 μl/min for 3 min on flow-path 1 and 2 (flow-path 1 being used as reference). Dissociation was monitored for 5 min. […] Experimental data were processed using the 1:1 Langmuir kinetic fitting model.

[3] = molecular target: T3, Biotinylated Human CD38 Protein, Avitag, His Tag (Acrobiosystems CD8-H82E7) (human, UniProt P28907 43-300, biotinylated); assay: SPR, Fab as analyte, immobilised biotinylated human CD38;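 note: biacore T200 at 25 °C, single-cycle kinetics with Fab from 7.8 to 2000 nM, 3 min association then 5 min dissociation, fitted with a 1:1 Langmuir model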
T3 construct: bought protein; also called biotinylated recombinant human CD38 protein; human CD38-avi-his
Experimental: as §1, §2

[4] = molecular target: T4, human CD3 on primary human CD38-negative T cells (human, UniProt P07766 23-207; P04234 22-171; P09693 23-182); assay: flow cytometry on primary human CD38-negative T cells, one-site binding fit
T4 construct: whole, on cells; Native CD3 within the TCR/CD3 complex on isolated human T cells, gated CD38-negative
T4 sequence (P07766 23-207, chain 1 of 3): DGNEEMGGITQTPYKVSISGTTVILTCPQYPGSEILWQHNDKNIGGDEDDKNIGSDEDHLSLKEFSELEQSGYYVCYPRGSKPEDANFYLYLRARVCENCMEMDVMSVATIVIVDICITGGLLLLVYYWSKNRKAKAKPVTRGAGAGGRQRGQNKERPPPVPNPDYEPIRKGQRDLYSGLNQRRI
T4 sequence (P04234 22-171, chain 2 of 3): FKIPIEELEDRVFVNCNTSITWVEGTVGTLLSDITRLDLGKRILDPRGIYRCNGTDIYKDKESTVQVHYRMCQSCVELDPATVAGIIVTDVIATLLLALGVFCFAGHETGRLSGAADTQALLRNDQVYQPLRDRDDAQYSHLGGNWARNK
T4 sequence (P09693 23-182, chain 3 of 3): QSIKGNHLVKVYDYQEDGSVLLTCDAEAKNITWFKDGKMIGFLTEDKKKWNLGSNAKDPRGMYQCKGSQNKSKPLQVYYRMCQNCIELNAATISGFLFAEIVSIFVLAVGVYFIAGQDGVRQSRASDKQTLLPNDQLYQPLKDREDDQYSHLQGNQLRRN
Experimental: Human PBMC were harvested from buffy coats/apheresis filters obtained from La Chaux-de-Fonds/Bern (Switzerland) Transfusion Center using Ficoll® density gradient isolation. […] Cells were thawed in pre-warmed complete RPMI medium (RPMI supplemented with 10% heat inactivated fetal calf serum, 1% L-Glutamine, 1% Non-essential Amino Acids, 1% Sodium Pyruvate, and 1% Penicillin/Streptomycin) and rested overnight at 2 ×10⁶ cells/ml. Cells were plated at 1×10⁵ cells/well in a 96-well round-bottom plate. […] Cells were incubated for 30 min at 4° C. Cells were then washed twice and resuspended in 50 μl of FACS buffer containing SYTOX Blue dead cell stain (ThermoFisher Scientific, S34857) diluted 1/2000. Samples were acquired on an iQue Screener Plus instrument (IntelliCyt). Cells were gated based on size on FSC vs SSC and debris and doublets were excluded. Finally, viable cells were gated on CD38-T cells. This population was analyzed for AlexaFluor647-geometric mean (geomean) fluorescence intensity using iQue Forecyt® software. Only samples showing at least 200 cells in final gate were considered in the further steps of the analysis. Relative geomean fluorescence intensity (RFI) was calculated by subtracting fluorescence of negative control (CD3/BCMA/CD38_085) to fluorescence of treatments at each dilution. Relative geomean fluorescence intensity values were finally plotted using Prism software (GraphPad). Equilibrium dissociation constant values (KD) and maximum binding were determined by using one-site binding curve fitting on non-transformed data (Prism).

[5] = molecular target: T4, human CD3 on primary human …; assay: flow cytometry on CD38-negative primary human T cells, RFI after subtraction of the negative control, six donors
Experimental: Cells were thawed in pre-warmed complete RPMI medium (RPMI supplemented with 10% heat inactivated fetal calf serum, 1% L-Glutamine, 1% Non-essential Amino Acids, 1% Sodium Pyruvate, and 1% Penicillin/Streptomycin) and rested overnight at 2 ×10⁶ cells/ml. Cells were plated at 1×10⁵ cells/well in a 96-well round-bottom plate. […] Cells were incubated for 30 min at 4° C. Cells were then washed twice and resuspended in 50 μl of FACS buffer containing SYTOX Blue dead cell stain (ThermoFisher Scientific, S34857) diluted 1/2000. Samples were acquired on an iQue Screener Plus instrument (IntelliCyt). Cells were gated based on size on FSC vs SSC and debris and doublets were excluded. Finally, viable cells were gated on CD38-T cells. This population was analyzed for AlexaFluor647-geometric mean (geomean) fluorescence intensity using iQue Forecyt® software. Only samples showing at least 200 cells in final gate were considered in the further steps of the analysis. Relative geomean fluorescence intensity (RFI) was calculated by subtracting fluorescence of negative control (CD3/BCMA/CD38_085) to fluorescence of treatments at each dilution. Relative geomean fluorescence intensity values were finally plotted using Prism software (GraphPad). Equilibrium dissociation constant values (KD) and maximum binding were determined by using one-site binding curve fitting on non-transformed data (Prism).

[6] = molecular target: T5, human BCMA on multiple myeloma cells (human, UniProt Q02223 1-184); assay: flow cytometry on MOLP-8 cells; one-site binding fit
T5 construct: whole, on cells; Here the protein is the cell lines' own; also called B-cell maturation antigen; TNFRSF17
T5 sequence (looked up): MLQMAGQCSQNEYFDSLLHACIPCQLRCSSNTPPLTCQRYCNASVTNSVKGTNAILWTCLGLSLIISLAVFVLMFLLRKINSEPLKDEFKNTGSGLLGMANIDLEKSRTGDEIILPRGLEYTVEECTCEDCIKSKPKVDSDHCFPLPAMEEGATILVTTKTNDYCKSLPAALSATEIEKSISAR

[7] = molecular target: T5, human BCMA on multiple myeloma cells; assay: flow cytometry on KMS-12-BM cells; one-site binding fit
Experimental: (§3) The plates were centrifuged at 350 g for 3 min at 4° C. and cells washed twice with DPBS.
(§4) Cells were resuspended in 25 μl of LIVE/DEAD Fixable Near-IR Dead Cell Stain (ThermoFisher Scientific, L34976) diluted at 1/1′000 in DPBS and incubated 20 min at 4° C. […] Cells were then washed twice and resuspended in 25 μl of FACS buffer with azide. Samples were acquired on an iQue Screener Plus instrument (IntelliCyt). Cells were gated based on size on FSC vs SSC and debris, doublets and dead cells were excluded. Population was analyzed for APC-geometric mean (geomean) fluorescence intensity (MFI) using iQue Forecyt® software. Only samples showing at least 2′000 cells in final gate were considered in the further steps of the analysis. Relative geometric mean fluorescence intensity (RFI) was calculated by subtracting the MFI of the negative control from the MFI of the sample at each dilution. RFI values were finally plotted using Prism software (GraphPad). Equilibrium dissociation constant values (KD) and maximum binding were determined by using one-site binding curve fitting on non-transformed data (Prism).

[8] = molecular target: T5, human BCMA on multiple myeloma cells; assay: flow cytometry on NCI-H929 WT cells; one-site binding fit
Experimental: as §3, §4

[9] = molecular target: T5, human BCMA on multiple myeloma cells; assay: flow cytometry on NCI-H929 CD38 KO cells; one-site binding fit
Experimental: as §3, §4

[10] = molecular target: T5, human BCMA on multiple myeloma cells; assay: flow cytometry on KMS-12-BM cells (BCMA+CD38+), anti-human IgG secondary, RFI
Experimental: as §3, §4

[11] = molecular target: T5, human BCMA on multiple myeloma cells; assay: flow cytometry on NCI-H929 cells (BCMA++CD38++), anti-human IgG secondary, RFI
Experimental: as §3, §4

[12] = molecular target: T6, human CD3 on primary human T cells (human, UniProt P07766 23-207; P04234 22-171; P09693 23-182; P20963 22-164); assay: flow cytometry on isolated human primary T cells gated CD38-negative; one-site binding fit
T6 construct: whole, on cells; Endogenous CD3 complex on isolated human T cells, gated CD38-negative; also called CD3-expressing T cells; human CD38 negative T cells
T6 sequence (P07766 23-207, chain 1 of 4): as the sequence (P07766 23-207, chain 1 of 3) above
T6 sequence (P04234 22-171, chain 2 of 4): as the sequence (P04234 22-171, chain 2 of 3) above
T6 sequence (P09693 23-182, chain 3 of 4): as the sequence (P09693 23-182, chain 3 of 3) above
T6 sequence (P20963 22-164, chain 4 of 4): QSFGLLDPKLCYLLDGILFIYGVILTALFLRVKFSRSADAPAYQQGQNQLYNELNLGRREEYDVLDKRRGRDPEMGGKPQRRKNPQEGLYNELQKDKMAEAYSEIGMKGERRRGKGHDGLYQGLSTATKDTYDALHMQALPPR
Experimental: Cells were thawed in pre-warmed complete RPMI medium (RPMI supplemented with 10% heat inactivated fetal calf serum, 1% L-Glutamine, 1% Non-essential Amino Acids, 1% Sodium Pyruvate, and 1% Penicillin/Streptomycin) and rested overnight at 1.5×10⁶ cells/ml. Cells were plated at 1×10⁵ cells/well in 96-well round-bottom plates. The plates were centrifuged at 350 g for 3 min at 4° C. and cells washed twice with DPBS. Cells were resuspended in 25 μl of LIVE/DEAD Fixable Near-IR Dead Cell Stain (ThermoFisher Scientific, L34976) diluted at 1/1′000 in DPBS and incubated 20 min at 4° C. […] Cells were then washed twice and resuspended in 25 μl of FACS buffer with azide. Samples were acquired on an iQue Screener Plus instrument (IntelliCyt). Cells were gated based on size on FSC vs SSC and debris, doublets and dead cells were excluded. Finally, viable cells were gated on CD38-T cells. The population was analyzed for PE-geometric mean (geomean) fluorescence intensity (MFI) using iQue Forecyt© software. Only samples showing at least 2′000 cells in final gate were considered in the further steps of the analysis. Relative geometric mean fluorescence intensity (RFI) was calculated per donor by subtracting the mean of MFI of the negative control from the MFI of the sample at each dilution. RFI values were finally plotted using Prism software (GraphPad). Equilibrium dissociation constant values (KD) and maximum binding were determined by using one-site binding curve fitting on non-transformed data (Prism). […] Two independent experiments were performed.

[13] = molecular target: T5, human BCMA on multiple myeloma cells; assay: flow cytometry on NCI-H929 CD38 KO cells (BCMA++CD38-), anti-human IgG secondary, RFI
Experimental: as §3, §4

[14] = molecular target: T6, human CD3 on primary human T cells; assay: flow cytometry on isolated human T cells (CD38-negative gate), anti-human IgG secondary, relative fluorescence (RFI)
[15] = molecular target: T7, human CD38 on multiple myeloma cells (human, UniProt P28907 1-300); assay: flow cytometry on NCI-H929 BCMA KO cells (BCMA-CD38++), anti-human IgG secondary, RFI
T7 construct: whole, on cells; Here the protein is the cell lines' own
Experimental: as §3, §4

B2: TNB-F2B BEAT Fc (bispecific antibody, human IgG1, kappa, L234A L235A)
chain 1: EVQLVESGGGLVQPGRSLRLSCAASGFTFDDYAMHWVRQAPGKGLEWVSGISWNSGSIGYADSVKGRFTISRDNAKNSLYLQMNSLRAEDTALYYCAKDSRGYGDYRLGGAYWGQGTLVTVSSASTKGPSVFPLAPSSKSTSGGTAALGCLVKDYFPEPVTVSWNSGALTSGVHTFPAVLQSSGLYSLSSVVTVPSSSLGTQTYICNVNHKPSNTKVDKKVEPKSCDKTHTCPPCPAPEAAGGPSVFLFPPKPKDTLMISRTPEVTCVVVDVSHEDPEVKFNWYVDGVEVHNAKTKPREEQYNSTYRVVSVLTVLHQDWLNGKEYKCKVSNKALPAPIEKTISKAKGQPREPAVYTLPPSREEMTKNQVKLVCLVTGFYPSDIAVEWESSGQPENNYYTTPPMLDSDGSFSLVSWLNVDKSRWQQGNIFSCSVMHEALHNRFTQKSLSLSPG
chain 2: EVQLLESGGGLVQPGGSLRLSCAASGFTVSSYGMSWVRQAPGKGPEWVSGIRGSDGSTYYADSVKSRFTISRDNSKNTLYLQMNSLRAEDTAVYYCAKQGENDGPFDHRGQGTLVTVSSGGGGSEVQLLESGGGLVQPGGSLRLSCAASGFTVSSYGMSWVRQAPGKGPEWVSGIRGSDGSTYYADSVKSRFTISRDNSKNTLYLQMNSLRAEDTAVYYCAKQGENDGPFDHRGQGTLVTVSSGGGGTDKTHTCPPCPAPEAAGGPSVFLFPPKPKDTLMISRTPEVTCVVVDVSHEDPEVKFNWYVDGVEVHNAKTKPREEQYNSTYRVVSVLTVLHQDWLNGKEYKCKVSNKALPAPIEKTISKAKGQPREPEVATFPPSRDELTKNQVTLVCLVTGFYPSDIAVEWESNGQPENNYKTDPPLLESQGSFALSSRLRVDKSRWQQGNVFSCSVMHEALHNHYTQKSLSLSPG
light: not shown
notes: CD3 Fab (TNB-F2B) x BCMA dAb-dAb (TNB-BCMA) on a silenced (LALA) BEAT Fc; also called CD3xBCMA benchmark
Max binding (RFI) [4]: 60 RFI | binding result [5]: no binding (tested: 800 nM)

B4: alnuctamab (bispecific antibody)
chain 1: EVQLLESGGGLVQPGGSLRLSCAASGFTFSDNAMGWVRQAPGKGLEWVSAISGPGSSTYYADSVKGRFTISRDNSKNTLYLQMNSLRAEDTAVYYCAKVLGWFDYWGQGTLVTVSSASTKGPSVFPLAPSSKSTSGGTAALGCLVEDYFPEPVTVSWNSGALTSGVHTFPAVLQSSGLYSLSSVVTVPSSSLGTQTYICNVNHKPSNTKVDEKVEPKSCDKTHTCPPCPAPEAAGGPSVFLFPPKPKDTLMISRTPEVTCVVVDVSHEDPEVKFNWYVDGVEVHNAKTKPREEQYNSTYRVVSVLTVLHQDWLNGKEYKCKVSNKALGAPIEKTISKAKGQPREPQVCTLPPSRDELTKNQVSLSCAVKGFYPSDIAVEWESNGQPENNYKTTPPVLDSDGSFFLVSKLTVDKSRWQQGNVFSCSVMHEALHNHYTQKSLSLSPGK
chain 2: EIVLTQSPGTLSLSPGERATLSCRASQSVSDEYLSWYQQKPGQAPRLLIHSASTRATGIPDRFSGSGSGTDFTLAISRLEPEDFAVYYCQQYGYPPDFTFGQGTKVEIKRTVAAPSVFIFPPSDRKLKSGTASVVCLLNNFYPREAKVQWKVDNALQSGNSQESVTEQDSKDSTYSLSSTLTLSKADYEKHKVYACEVTHQGLSSPVTKSFNRGEC
chain 3: not shown
chain 4: EVQLLESGGGLVQPGGSLRLSCAASGFTFSTYAMNWVRQAPGKGLEWVSRIRSKYNNYATYYADSVKGRFTISRDDSKNTLYLQMNSLRAEDTAVYYCVRHGNFGNSYVSWFAYWGQGTLVTVSSASVAAPSVFIFPPSDEQLKSGTASVVCLLNNFYPREAKVQWKVDNALQSGNSQESVTEQDSKDSTYSLSSTLTLSKADYEKHKVYACEVTHQGLSSPVTKSFNRGEC
Kd [7]: 3.9 nM | Kd [8]: 6 nM | Kd [9]: 8.1 nM | EC50 (read off the curve) [10]: ~3 nM | EC50 (read off the curve) [11]: ~6 nM | Kd [12]: 252 nM | EC50 (read off the curve) [13]: ~7 nM

B5: 83A10-TCBcv (bispecific antibody, human IgG1, kappa, L234A L235A)
chain 1: not shown
chain 2: not shown
chain 3: not shown
chain 4: B4 chain 4
notes: CD3xBCMA bispecific comparator; also called EM-801; CD3xBCMA benchmark
Kd [4]: 80 nM | Max binding (RFI) [4]: 103000 RFI

B6: 83A10-TCBcv (bispecific antibody, human IgG1, kappa, L234A L235A)
chain 1: not shown
chain 2: not shown
chain 3: not shown
chain 4: B4 chain 4
notes: Comparator CD3xBCMA bispecific antibody; also called CD3 x BCMA benchmark
Kd [12]: 155 nM | binding result [15]: no binding (tested: 800 nM)

Results, then the binder that gave them:

binding result [1]: binds | Kd [2]: 170 nM | Kd [3]: 115 nM
B1: Anti-CD38-UCP03-B3 FAB (Fab, V domains shown)
VH: QVQLVQSGAEVKKPGSSVKVSCKASGGDFTLYSISWVRQAPGQGLEWMGRIIPTGANANYAQKFQGRVTITADESTSTAYMELSSLRSEDTAVYYCARSWPSLGSGWFDIWGQGTLVTVSS
VL: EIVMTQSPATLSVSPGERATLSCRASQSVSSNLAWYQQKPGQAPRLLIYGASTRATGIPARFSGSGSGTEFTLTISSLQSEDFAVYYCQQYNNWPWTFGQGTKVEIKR
notes: Fab; also called anti-CD38-B3; anti-CD38-B3 Fab

Kd [6]: 95.8 nM | Kd [7]: 21.8 nM | Kd [8]: 30.4 nM | Kd [9]: 46.3 nM | EC50 (read off the curve) [10]: ~20 nM | EC50 (read off the curve) [11]: ~30 nM | Kd [12]: 18 nM | EC50 (read off the curve) [13]: ~40 nM | EC50 (read off the curve) [14]: ~20 nM
B3: teclistamab (bispecific antibody)
chain 1: not shown
chain 2: SYVLTQPPSVSVAPGQTARITCGGNNIGSKSVHWYQQPPGQAPVVVVYDDSDRPSGIPERFSGSNSGNTATLTISRVEAGDEAVYYCQVWDSSSDHVVFGGGTKLTVLGQPKAAPSVTLFPPSSEELQANKATLVCLISDFYPGAVTVAWKGDSSPVKAGVETTTPSKQSNNKYAASSYLSLTPEQWKSHRSYSCQVTHEGSTVEKTVAPTECS
chain 3: EVQLVESGGGLVQPGGSLRLSCAASGFTFNTYAMNWVRQAPGKGLEWVARIRSKYNNYATYYAASVKGRFTISRDDSKNSLYLQMNSLKTEDTAVYYCARHGNFGNSYVSWFAYWGQGTLVTVSSASTKGPSVFPLAPCSRSTSESTAALGCLVKDYFPEPVTVSWNSGALTSGVHTFPAVLQSSGLYSLSSVVTVPSSSLGTKTYTCNVDHKPSNTKVDKRVESKYGPPCPPCPAPEAAGGPSVFLFPPKPKDTLMISRTPEVTCVVVDVSQEDPEVQFNWYVDGVEVHNAKTKPREEQFNSTYRVVSVLTVLHQDWLNGKEYKCKVSNKGLPSSIEKTISKAKGQPREPQVYTLPPSQEEMTKNQVSLTCLVKGFYPSDIAVEWESNGQPENNYKTTPPVLDSDGSFLLYSKLTVDKSRWQEGNVFSCSVMHEALHNHYTQKSLSLSLGK
chain 4: QTVVTQEPSLTVSPGGTVTLTCRSSTGAVTTSNYANWVQQKPGQAPRGLIGGTNKRAPGTPARFSGSLLGGKAALTLSGVQPEDEAEYYCALWYSNLWVFGGGTKLTVLGQPKAAPSVTLFPPSSEELQANKATLVCLISDFYPGAVTVAWKADSSPVKAGVETTTPSKQSNNKYAASSYLSLTPEQWKSHRSYSCQVTHEGSTVEKTVAPTECS
